Experimental data reported in patent US20200317768A1 (published 2020).
Positions count from the first letter of the chain named. In names and notes the source's numbering stands.

T1: cynomolgus monkey FcγRIIIaS extracellular domain with C-terminal His-tag (cynomolgus monkey, UniProt Q8SPW2 21-206 at identity 1.00))
T1 construct: Expressed in FreeStyle 293 cells and purified; also called cyno FcγRIIIaS; cynoFcγRIIIaS; not shown: C-terminal His-tag
T1 chain: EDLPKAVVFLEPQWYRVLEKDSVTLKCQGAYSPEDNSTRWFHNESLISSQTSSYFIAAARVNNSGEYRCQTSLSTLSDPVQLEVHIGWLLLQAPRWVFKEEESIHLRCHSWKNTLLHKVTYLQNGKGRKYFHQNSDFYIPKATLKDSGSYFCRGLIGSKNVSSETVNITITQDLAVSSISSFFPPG

T2: cynomolgus monkey FcγRIIa1 extracellular domain with C-terminal His-tag (cynomolgus monkey)
T2 construct: Expressed in FreeStyle 293 cells and purified; also called cyno FcγRIIa1; cynoFcgRIIa1; not shown: C-terminal His-tag
T2 chain: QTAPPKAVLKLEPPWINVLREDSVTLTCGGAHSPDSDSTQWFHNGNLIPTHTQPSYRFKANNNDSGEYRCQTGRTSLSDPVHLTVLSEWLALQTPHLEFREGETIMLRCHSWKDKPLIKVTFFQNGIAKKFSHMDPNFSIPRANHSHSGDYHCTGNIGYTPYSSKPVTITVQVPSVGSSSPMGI

T3: human FcγRIIaR extracellular domain with C-terminal His-tag (human, UniProt P12318 34-217)
T3 construct: Expressed in FreeStyle 293 cells and purified; also called human FcγRIIa (type R); FcgRIIaR; not shown: C-terminal His-tag
T3 chain: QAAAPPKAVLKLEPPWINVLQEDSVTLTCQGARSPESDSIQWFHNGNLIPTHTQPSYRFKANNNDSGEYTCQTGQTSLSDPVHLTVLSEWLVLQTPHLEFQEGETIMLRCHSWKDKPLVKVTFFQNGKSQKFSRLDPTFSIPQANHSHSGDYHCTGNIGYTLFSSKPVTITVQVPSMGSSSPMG

T4: cynomolgus monkey FcγRIIa2 extracellular domain with C-terminal His-tag (cynomolgus monkey)
T4 construct: Expressed in FreeStyle 293 cells and purified; also called cyno FcγRIIa2; cynoFcgRIIa2; not shown: C-terminal His-tag
T4 chain: T2 chain with P95T, T121A, I127K, A128S, K130N, D135N, R142Q

T5: human FcγRIIaH extracellular domain with C-terminal His-tag (human, UniProt P12318 34-217)
T5 construct: Expressed in FreeStyle 293 cells and purified; also called human FcγRIIa (type H); FcgRIIaH; not shown: C-terminal His-tag
T5 sequence: T3 chain with R134H

T6: human FcγRIIb extracellular domain with C-terminal His-tag (human, UniProt P31994 43-217)
T6 construct: Expressed in FreeStyle 293 cells and purified; also called humanFcgRIIb; not shown: C-terminal His-tag
T6 sequence: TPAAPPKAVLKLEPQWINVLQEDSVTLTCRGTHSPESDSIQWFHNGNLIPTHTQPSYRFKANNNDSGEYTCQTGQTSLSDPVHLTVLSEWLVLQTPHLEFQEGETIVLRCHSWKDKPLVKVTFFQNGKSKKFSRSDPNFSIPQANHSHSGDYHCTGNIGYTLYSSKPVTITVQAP

T7: cynomolgus monkey FcγRIIa3 extracellular domain with C-terminal His-tag (cynomolgus monkey)
T7 construct: Expressed in FreeStyle 293 cells and purified; also called cyno FcγRIIa3; cynoFcgRIIa3; not shown: C-terminal His-tag
T7 chain: T2 chain with P95T, T121A, A128S, H133P, D135N

T8: cynomolgus monkey FcγRIIb extracellular domain with C-terminal His-tag (cynomolgus monkey)
T8 construct: Expressed in FreeStyle 293 cells and purified; also called cyno FcγRIIb; cynoFcγRIIb; not shown: C-terminal His-tag
T8 chain: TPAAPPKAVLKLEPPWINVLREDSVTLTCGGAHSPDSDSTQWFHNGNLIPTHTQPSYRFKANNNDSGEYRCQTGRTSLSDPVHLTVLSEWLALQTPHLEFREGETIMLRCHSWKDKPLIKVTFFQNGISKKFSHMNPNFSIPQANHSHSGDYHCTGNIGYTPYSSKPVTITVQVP

T9: human FcγRIIaR extracellular domain, C-terminal His-tag (human, UniProt P12318 34-217)
T9 construct: also called human FcγRIIa (type R); FcgRIIaR; not shown: His-tag added to the C-terminus
T9 chain: T3 chain

T10: human FcγRIIb extracellular domain, C-terminal His-tag (human, UniProt P31994 43-217)
T10 construct: also called FcgRIIb; not shown: His-tag added to the C-terminus
T10 sequence: T6 sequence

T11: human FcγRIIaH extracellular domain, C-terminal His-tag (human, UniProt P12318 34-217)
T11 construct: also called human FcγRIIa (type H); FcgRIIaH; not shown: His-tag added to the C-terminus
T11 sequence: T3 chain with R134H

B1: M103205H795-MY198 / M103202L889-SK1 (antibody, human IgG1, kappa)
heavy: QVTLKESGPVLVKPTETLTLTCTVSGIDLSHDDISWVRQAPGKGLEWVGIISYAGSTYYASWAKGRLTISKDTSKNQVVLTMTNMDPVDTATYYCARGVPAYSHGGDLWGQGTLVTVSSASTKGPSVFPLAPSSKSTSGGTAALGCLVKDYFPEPVTVSWNSGALTSGVHTFPAVLQSSGLYSLSSVVTVPSSSLGTQTYICNVNHKPSNTKVDKKVEPKSCDKTHTCPPCPAPELLNGPVVFLFPPKPKDTLMISRTPEVTCVVVDVSDEDPEVKFNWYVDGVEVHNAKTKPREEQYNSTYRVVSVLTVLHQDWLNGKEYKCKVSNKALPKPIEKTISKAKGQPREPQVYTLPPSREEMTKNQVSLTCLVKGFYPSDIAVEWESNGQPENNYKTTPMVLDSDGSFFLYSKLTVDKSRWQQGNVFSCSVMHEALHNHYTQKSLSLSP
light: DIVMTQSPATLSLSPGERATLSCTSSQSVYHANWLSWFQQKPGQPPKLLIYWASTLAYGVPSRFSGSGSGTDFTLTISSLQPEDAATYYCAGGYGGGRYAFGQGTKVEIKRTVAAPSVFIFPPSDEQLKSGTASVVCLLNNFYPREAKVQWKVDNALQSGNSQESVTEQDSKDSTYSLSSTLTLSKADYEKHKVYACEVTHQGLSSPVTKSFNRGEC
notes: Fc variant of M103205H795-SG1, expressed with M103202L889-SK1 as light chain
B2: M103205H795-MY200 / M103202L889-SK1 (antibody, human IgG1, kappa)
heavy: B1 heavy with D270E, M398P
light: B1 light
notes: as for B1
B3: MS103240H795-TT35/M103202L1045-SK1 (antibody, human IgG1, kappa)
heavy: QVQLVESGGGLVQPGGSLRLSCAVSGIDLSHDDISWVRQAPGKGLEWVSIISYAGSTYYASWAKGRLTISKDTSKNQVVLTMTNMDPVDTATYYCARGVPAYSHGGDLWGQGTLVTVSSASTKGPSVFPLAPSSKSTSGGTAALGCLVKDYFPEPVTVSWNSGALTSGVHTFPAVLQSSGLYSLSSVVTVPSSSLGTQTYICNVNHKPSNTKVDKKVEPKSCDKTHTCPPCPAPEYLGGDSVFLFPPKPKDVLMISRTPEVTCVVIDVAHEDPEVKFNWYVDGVEVHNAKTKPREEQYNSTYRVVSVLPVLHRDWLNGKEYKCKVSNKALPKPIEKTISKAKGQPREPQVYTLPPSREEMTKNQVSLTCLVKGFYPSDIAVEWESNGQPENNYKTTPPVLDSDGSFFLYSKLTVKKSRWQQGNVFSCSVMHEALHNHYTQKSLSLSP
light: B1 light with S25T, A32E
notes: CH = SG1 with L234Y/P238D/T250V/V264I/S267A/T307P/Q311R/A330K/D413K (EU numbering)
B4: M103205H795-MY209 / M103202L889-SK1 (antibody, human IgG1, kappa)
heavy: B1 heavy with V241S, Q297L, K328T, M398P
light: B1 light
notes: as for B1
B5: M103205H795-MY199 / M103202L889-SK1 (antibody, human IgG1, kappa)
heavy: B1 heavy with V241S, D270E, M398P
light: B1 light
notes: as for B1

Assays:
[1] = molecular target: T1, cynomolgus monkey FcγRIIIaS …; assay: SPR (Biacore); KD of SG1 divided by KD of the variant for this FcgR;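 further: relative to parent M103205H795-SG1 carrying the SG1 human heavy chain constant region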
Method: (§1) Regarding such interactions, KD values were calculated using the following 1:1 binding model described in BIACORE® T100 Software Handbook BR1006-48 Edition AE.
(§2) The behavior of interacting molecules according to the 1:1 binding model on BIACORE® can be described by Equation 1: Req=C·R max/(KD+C)+RI, wherein, Req is a plot of steady-state binding levels to analyte concentration. C is concentration, RI is bulk refractive index contribution in the sample, and Rmax is analyte binding capacity of the surface. When this equation is rearranged, KD can be expressed as Equation 2: KD=C·Rmax/(Req−RI)−C. KD can be calculated by substituting the values of Rmax, RI, and C into Equation 1 or Equation 2. From the current measurement conditions, RI=0, C=2 μmol/L can be used.
(§3) The variants were expressed using M103202L889-SK1 as the light chain and their affinity was analyzed.

[2] = molecular target: T2, cynomolgus monkey FcγRIIa1 …; assay: as above
Method: as §1, §2, §3

[3] = molecular target: T3, human FcγRIIaR extracellular domain …; assay: as above
Method: as §1, §2, §3

[4] = molecular target: T4, cynomolgus monkey FcγRIIa2 …; assay: as above
Method: as §1, §2, §3

[5] = molecular target: T5, human FcγRIIaH extracellular domain …; assay: as above
Method: as §1, §2, §3

[6] = molecular target: T6, human FcγRIIb extracellular domain with …; assay: as above
Method: as §1, §2, §3

[7] = molecular target: T7, cynomolgus monkey FcγRIIa3 …; assay: as above
Method: as §1, §2, §3

[8] = molecular target: T8, cynomolgus monkey FcγRIIb extracellular …; assay: as above
Method: as §1, §2, §3

[9] = molecular target: T12, human FcγRIIIaV extracellular domain with C-terminal His-tag (human, UniProt P08637 17-208); assay: as above
T12 construct: Expressed in FreeStyle 293 cells and purified; also called FcgRIIIaV; not shown: C-terminal His-tag
Method: as §1, §2, §3

[10] = molecular target: T9, human FcγRIIaR extracellular domain, …; assay: SPR (BIACORE), antibody captured, soluble FcgR as analyte, 25C
[11] = molecular target: T13, human FcγRIIIaV extracellular domain, C-terminal His-tag (human, UniProt P08637 17-208); assay: as above
T13 construct: also called FcgRIIIaV; not shown: His-tag added to the C-terminus

[12] = molecular target: T10, human FcγRIIb extracellular domain, …; assay: as above
[13] = molecular target: T11, human FcγRIIaH extracellular domain, …; assay: as above
[14] = molecular target: T9, human FcγRIIaR extracellular domain, …; assay: SPR; KD of SG1 divided by KD of variant;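 further: relative to parent M103205H795-SG1 carrying the SG1 human heavy chain constant region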
[15] = molecular target: T13, human FcγRIIIaV extracellular domain, …; assay: SPR; KD of SG1 divided by KD of variant;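 further: relative to parent M103205H795-SG1 carrying the SG1 human heavy chain constant region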
[16] = molecular target: T10, human FcγRIIb extracellular domain, …; assay: SPR; KD of SG1 divided by KD of variant;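 further: relative to parent M103205H795-SG1 carrying the SG1 human heavy chain constant region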
[17] = molecular target: T11, human FcγRIIaH extracellular domain, …; assay: SPR; KD of SG1 divided by KD of variant

T12 sequence (P08637 17-208 F176V): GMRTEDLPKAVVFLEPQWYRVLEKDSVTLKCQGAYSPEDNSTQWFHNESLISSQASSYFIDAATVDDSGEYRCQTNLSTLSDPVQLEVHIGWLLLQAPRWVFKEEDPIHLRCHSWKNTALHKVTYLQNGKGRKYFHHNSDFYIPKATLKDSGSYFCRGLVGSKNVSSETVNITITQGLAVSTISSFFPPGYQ
T13 sequence (P08637 17-208 F176V): as above

Row | KD fold (SG1 = 1) [1] | KD fold (SG1 = 1) [2] | KD fold (SG1 = 1) [3] | KD fold (SG1 = 1) [4] | KD fold (SG1 = 1) [5] | KD fold (SG1 = 1) [6] | KD fold (SG1 = 1) [7] | KD fold (SG1 = 1) [8] | KD fold (SG1 = 1) [9] | Kd [10] | Kd [11] | Kd [12] | Kd [13] | KD fold (SG1 = 1) [14] | KD fold (SG1 = 1) [15] | KD fold (SG1 = 1) [16] | KD fold (SG1 = 1) [17] | Binder
1 | 0.18 fold | 7.3 fold | 1.4 fold | 15.5 fold | 1.3 fold | 11 fold | 12.1 fold | 7.5 fold | 0.12 fold | – | – | – | – | – | – | – | – | B1
2 | 0.08 fold | 1.9 fold | 0.4 fold | 3.4 fold | 0.4 fold | 3.3 fold | 3.4 fold | 1.6 fold | 0.05 fold | – | – | – | – | – | – | – | – | B2
3 | – | – | – | – | – | – | – | – | – | 9 µM | 180 µM | 0.43 µM | 25 µM | 0.12 fold | 0.004 fold | 13.5 fold | 0.03 fold | B3
4 | 0.16 fold | 5.1 fold | 1.3 fold | 7.4 fold | 1.2 fold | 9.2 fold | 5.9 fold | – | 0.06 fold | – | – | – | – | – | – | – | – | B4
5 | 0.09 fold | 1.7 fold | 0.4 fold | 2.6 fold | 0.6 fold | 2.4 fold | 1.4 fold | 1.6 fold | 0.06 fold | – | – | – | – | – | – | – | – | B5
